Measured values: paper PMC10397247

Key:
[1] = biological target: T1, 4H1809-AA; experiment: two-hybrid library CCmax; settings: mean of both orientations;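 also: natural log of median RNA to DNA barcode read ratio; higher means stronger binding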
T1 chain: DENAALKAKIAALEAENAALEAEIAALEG

[2] = biological target: T2, 4H3102-AA; experiment: two-hybrid library CCmax; settings: mean of both orientations;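 also: natural log of median RNA to DNA barcode read ratio; higher means stronger binding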
T2 chain: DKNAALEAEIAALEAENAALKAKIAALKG

[3] = biological target: T3, 4H428-AA; experiment: two-hybrid library CCmax; settings: mean of both orientations;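 also: natural log of median RNA to DNA barcode read ratio; higher means stronger binding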
T3 chain: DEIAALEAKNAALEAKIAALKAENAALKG

[4] = biological target: T4, 4H3709-AA; experiment: two-hybrid library CCmax; settings: mean of both orientations;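 also: natural log of median RNA to DNA barcode read ratio; higher means stronger binding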
T4 chain: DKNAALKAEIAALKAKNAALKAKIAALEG

[5] = biological target: T5, 4H2248-AA; experiment: two-hybrid library CCmax; settings: mean of both orientations;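 also: natural log of median RNA to DNA barcode read ratio; higher means stronger binding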
T5 chain: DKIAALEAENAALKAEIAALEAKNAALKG

[6] = biological target: T6, 4H189-AA; experiment: two-hybrid library CCmax; settings: mean of both orientations;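 also: natural log of median RNA to DNA barcode read ratio; higher means stronger binding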
T6 chain: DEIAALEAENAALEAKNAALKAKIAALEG

[7] = biological target: T7, 4H3666-AA; experiment: two-hybrid library CCmax; settings: mean of both orientations
T7 chain: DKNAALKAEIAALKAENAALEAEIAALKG

[8] = biological target: T8, 4H3628-AA; experiment: two-hybrid library CCmax; settings: mean of both orientations
T8 chain: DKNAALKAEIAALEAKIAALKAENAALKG

[9] = biological target: T9, 4H3029-AA; experiment: two-hybrid library CCmax; settings: mean of both orientations
T9 chain: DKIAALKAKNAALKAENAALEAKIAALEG

[10] = biological target: T10, 4H3417-AA; experiment: two-hybrid library CCmax; settings: mean of both orientations
T10 chain: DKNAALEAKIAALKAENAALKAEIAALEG

[11] = biological target: T11, 4H656-AA; experiment: two-hybrid library CCmax; settings: mean of both orientations
T11 chain: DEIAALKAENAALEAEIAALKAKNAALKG

[12] = biological target: T12, 4H391-AA; experiment: two-hybrid library CCmax; settings: mean of both orientations
T12 chain: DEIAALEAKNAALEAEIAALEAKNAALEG

[13] = biological target: T13, 4H675-AA; experiment: two-hybrid library CCmax; settings: mean of both orientations
T13 chain: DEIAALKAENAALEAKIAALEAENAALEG

[14] = biological target: T14, 4H146-AA; experiment: two-hybrid library CCmax; settings: mean of both orientations
T14 chain: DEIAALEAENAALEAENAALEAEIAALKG

[15] = biological target: T15, 4H3920-AA; experiment: two-hybrid library CCmax; settings: mean of both orientations
T15 chain: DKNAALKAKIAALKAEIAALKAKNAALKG

[16] = biological target: T16, 4H3591-AA; experiment: two-hybrid library CCmax; settings: mean of both orientations
T16 chain: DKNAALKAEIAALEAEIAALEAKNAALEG

[17] = biological target: T17, 4H3066-AA; experiment: two-hybrid library CCmax; settings: mean of both orientations
T17 chain: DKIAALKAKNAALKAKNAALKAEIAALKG

[18] = biological target: T18, 4H2948-AA; experiment: two-hybrid library CCmax; settings: mean of both orientations
T18 chain: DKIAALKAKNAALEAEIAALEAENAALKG

[19] = biological target: T19, 4H3446-AA; experiment: two-hybrid library CCmax; settings: mean of both orientations
T19 chain: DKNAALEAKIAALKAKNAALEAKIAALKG

[20] = biological target: T20, 4H3121-AA; experiment: two-hybrid library CCmax; settings: mean of both orientations
T20 chain: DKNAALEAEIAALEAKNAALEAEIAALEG

[21] = biological target: T21, 4H2283-AA; experiment: two-hybrid library CCmax; settings: mean of both orientations
T21 chain: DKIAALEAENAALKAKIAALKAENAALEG

[22] = biological target: T22, 4H2742-AA; experiment: two-hybrid library CCmax
T22 chain: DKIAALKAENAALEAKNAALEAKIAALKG

[23] = biological target: T23, 4H1391-AA; experiment: two-hybrid library CCmax
T23 chain: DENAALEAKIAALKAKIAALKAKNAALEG

[24] = biological target: T24, 4H1854-AA; experiment: two-hybrid library CCmax; settings: mean of both orientations
T24 chain: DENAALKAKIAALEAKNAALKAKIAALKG

[25] = biological target: T25, 4H478-AA; experiment: two-hybrid library CCmax; settings: mean of both orientations
T25 chain: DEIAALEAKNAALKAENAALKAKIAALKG

[26] = biological target: T26, 4H2991-AA; experiment: two-hybrid library CCmax; settings: mean of both orientations
T26 chain: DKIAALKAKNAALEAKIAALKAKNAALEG

[27] = biological target: T27, 4H497-AA; experiment: two-hybrid library CCmax; settings: mean of both orientations
T27 chain: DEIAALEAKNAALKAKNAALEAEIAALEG

[28] = biological target: T28, 4H971-AA; experiment: two-hybrid library CCmax; settings: mean of both orientations
T28 chain: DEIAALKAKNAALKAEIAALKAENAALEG

[29] = biological target: T29, 4H2713-AA; experiment: two-hybrid library CCmax; settings: mean of both orientations
T29 chain: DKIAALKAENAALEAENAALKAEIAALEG

[30] = biological target: T30, 4H3939-AA; experiment: two-hybrid library CCmax; settings: mean of both orientations
T30 chain: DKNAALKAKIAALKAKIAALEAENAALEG

[31] = biological target: T31, P6mS; experiment: two-hybrid library CCNG1
T31 chain: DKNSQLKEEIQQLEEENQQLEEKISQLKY

[32] = biological target: T32, P7mS; experiment: two-hybrid library CCNG1
T32 chain: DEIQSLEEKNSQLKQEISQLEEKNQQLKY

[33] = biological target: T33, P9mS; experiment: two-hybrid library CCNG1
T33 chain: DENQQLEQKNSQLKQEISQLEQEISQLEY

[34] = biological target: T34, P8mS; experiment: two-hybrid library CCNG1
T34 chain: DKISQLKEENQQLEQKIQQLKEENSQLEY

DENAALEAKIAALKAKIAALKAKNAALEG [4H1391-AA]
interaction score [1]: -0.868
interaction score [2]: -1.1
interaction score [3]: -1.77
interaction score [4]: -1.44
interaction score [5]: -1.32
interaction score [6]: -1.54
interaction score [7]: -1.8
interaction score [8]: 0.211
interaction score [9]: -1.41
interaction score [10]: -1.93
interaction score [11]: -1.09
interaction score [12]: -1.36
interaction score [13]: -1.62
interaction score [14]: -1.65
interaction score [15]: -0.296
interaction score [16]: 2.15
interaction score [17]: -1.99
interaction score [18]: -1.19
interaction score [19]: -1.64
interaction score [20]: -1.32
interaction score [21]: -1.61
interaction score [22]: -1.48
interaction score [23]: -0.77
interaction score [24]: -1.81
interaction score [25]: -1.53
interaction score [26]: -2.12
interaction score [27]: -1.59
interaction score [28]: -1.37
interaction score [29]: -1.47
interaction score [30]: -1.09

DKNSQLKEEIQQLEEENQQLEEKISQLKY [P6mS]
interaction score [31]: -0.275
interaction score [32]: -2.21
interaction score [33]: -0.654
interaction score [34]: -0.784
